T1: human amylin receptor (human calcitonin receptor + human RAMP3) (human) (UniProt P30988)
T1 sequence (looked up) 1: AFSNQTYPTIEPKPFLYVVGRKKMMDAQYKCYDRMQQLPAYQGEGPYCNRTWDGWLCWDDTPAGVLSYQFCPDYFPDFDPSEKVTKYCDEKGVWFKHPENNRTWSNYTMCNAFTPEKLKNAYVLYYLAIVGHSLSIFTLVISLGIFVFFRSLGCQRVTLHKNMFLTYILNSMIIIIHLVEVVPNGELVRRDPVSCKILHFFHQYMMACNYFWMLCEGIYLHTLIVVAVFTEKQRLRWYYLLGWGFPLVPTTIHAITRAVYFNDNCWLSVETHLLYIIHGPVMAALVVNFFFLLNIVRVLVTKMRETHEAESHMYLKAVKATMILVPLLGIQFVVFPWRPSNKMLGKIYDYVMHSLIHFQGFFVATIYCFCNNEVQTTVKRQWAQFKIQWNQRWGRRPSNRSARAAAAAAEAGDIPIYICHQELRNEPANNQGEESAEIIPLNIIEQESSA
T1 sequence (looked up) 2: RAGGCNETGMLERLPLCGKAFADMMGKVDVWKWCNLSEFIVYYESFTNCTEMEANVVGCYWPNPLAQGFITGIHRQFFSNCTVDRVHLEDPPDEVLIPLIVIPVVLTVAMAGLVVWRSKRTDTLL

B1: [N-terminal(C20 diacid-gGlu), des1, 30S, 31G, 33L]mimylin (peptide)
peptide: {C20 diacid-γGlu}-ASELSTAALGRLSAELHELATLPRTETGSGSL-NH2
SMILES: CC(C)C[C@H](NC(=O)[C@H](CO)NC(=O)CNC(=O)[C@H](CO)NC(=O)CNC(=O)[C@@H](NC(=O)[C@H](CCC(=O)O)NC(=O)[C@@H](NC(=O)[C@H](CCCNC(=N)N)NC(=O)[C@@H]1CCCN1C(=O)[C@H](CC(C)C)NC(=O)[C@@H](NC(=O)[C@H](C)NC(=O)[C@H](CC(C)C)NC(=O)[C@H](CCC(=O)O)NC(=O)[C@H](Cc1c[nH]cn1)NC(=O)[C@H](CC(C)C)NC(=O)[C@H](CCC(=O)O)NC(=O)[C@H](C)NC(=O)[C@H](CO)NC(=O)[C@H](CC(C)C)NC(=O)[C@H](CCCNC(=N)N)NC(=O)CNC(=O)[C@H](CC(C)C)NC(=O)[C@H](C)NC(=O)[C@H](C)NC(=O)[C@@H](NC(=O)[C@H](CO)NC(=O)[C@H](CC(C)C)NC(=O)[C@H](CCC(=O)O)NC(=O)[C@H](CO)NC(=O)[C@H](C)NC(=O)CC[C@H](NC(=O)CCCCCCCCCCCCCCCCCCC(=O)O)C(=O)O)[C@@H](C)O)[C@@H](C)O)[C@@H](C)O)[C@@H](C)O)C(N)=O
B2: [N-terminal(C20 diacid-gGlu), 23Y, 30S, 31G]mimylin (peptide)
peptide: {C20 diacid-γGlu}-EASELSTAALGRLSAELHELATYPRTETGSGSP-NH2
SMILES: CC(C)C[C@H](NC(=O)[C@H](C)NC(=O)[C@H](C)NC(=O)[C@@H](NC(=O)[C@H](CO)NC(=O)[C@H](CC(C)C)NC(=O)[C@H](CCC(=O)O)NC(=O)[C@H](CO)NC(=O)[C@H](C)NC(=O)[C@H](CCC(=O)O)NC(=O)CC[C@H](NC(=O)CCCCCCCCCCCCCCCCCCC(=O)O)C(=O)O)[C@@H](C)O)C(=O)NCC(=O)N[C@@H](CCCNC(=N)N)C(=O)N[C@@H](CC(C)C)C(=O)N[C@@H](CO)C(=O)N[C@@H](C)C(=O)N[C@@H](CCC(=O)O)C(=O)N[C@@H](CC(C)C)C(=O)N[C@@H](Cc1c[nH]cn1)C(=O)N[C@@H](CCC(=O)O)C(=O)N[C@@H](CC(C)C)C(=O)N[C@@H](C)C(=O)N[C@H](C(=O)N[C@@H](Cc1ccc(O)cc1)C(=O)N1CCC[C@H]1C(=O)N[C@@H](CCCNC(=N)N)C(=O)N[C@H](C(=O)N[C@@H](CCC(=O)O)C(=O)N[C@H](C(=O)NCC(=O)N[C@@H](CO)C(=O)NCC(=O)N[C@@H](CO)C(=O)N1CCC[C@H]1C(N)=O)[C@@H](C)O)[C@@H](C)O)[C@@H](C)O
B3: [N-terminal(C20 diacid-gGlu), des1, 30S, 31G, 33A]mimylin (peptide)
peptide: {C20 diacid-γGlu}-ASELSTAALGRLSAELHELATLPRTETGSGSA-NH2
SMILES: CC(C)C[C@H](NC(=O)[C@H](C)NC(=O)[C@H](C)NC(=O)[C@@H](NC(=O)[C@H](CO)NC(=O)[C@H](CC(C)C)NC(=O)[C@H](CCC(=O)O)NC(=O)[C@H](CO)NC(=O)[C@H](C)NC(=O)CC[C@H](NC(=O)CCCCCCCCCCCCCCCCCCC(=O)O)C(=O)O)[C@@H](C)O)C(=O)NCC(=O)N[C@@H](CCCNC(=N)N)C(=O)N[C@@H](CC(C)C)C(=O)N[C@@H](CO)C(=O)N[C@@H](C)C(=O)N[C@@H](CCC(=O)O)C(=O)N[C@@H](CC(C)C)C(=O)N[C@@H](Cc1c[nH]cn1)C(=O)N[C@@H](CCC(=O)O)C(=O)N[C@@H](CC(C)C)C(=O)N[C@@H](C)C(=O)N[C@H](C(=O)N[C@@H](CC(C)C)C(=O)N1CCC[C@H]1C(=O)N[C@@H](CCCNC(=N)N)C(=O)N[C@H](C(=O)N[C@@H](CCC(=O)O)C(=O)N[C@H](C(=O)NCC(=O)N[C@@H](CO)C(=O)NCC(=O)N[C@@H](CO)C(=O)N[C@@H](C)C(N)=O)[C@@H](C)O)[C@@H](C)O)[C@@H](C)O
B4: [N-terminal(C20 diacid-gGlu), des1, 30S, 31G, 33S]mimylin (peptide)
peptide: {C20 diacid-γGlu}-ASELSTAALGRLSAELHELATLPRTETGSGSS-NH2
SMILES: CC(C)C[C@H](NC(=O)[C@H](C)NC(=O)[C@H](C)NC(=O)[C@@H](NC(=O)[C@H](CO)NC(=O)[C@H](CC(C)C)NC(=O)[C@H](CCC(=O)O)NC(=O)[C@H](CO)NC(=O)[C@H](C)NC(=O)CC[C@H](NC(=O)CCCCCCCCCCCCCCCCCCC(=O)O)C(=O)O)[C@@H](C)O)C(=O)NCC(=O)N[C@@H](CCCNC(=N)N)C(=O)N[C@@H](CC(C)C)C(=O)N[C@@H](CO)C(=O)N[C@@H](C)C(=O)N[C@@H](CCC(=O)O)C(=O)N[C@@H](CC(C)C)C(=O)N[C@@H](Cc1c[nH]cn1)C(=O)N[C@@H](CCC(=O)O)C(=O)N[C@@H](CC(C)C)C(=O)N[C@@H](C)C(=O)N[C@H](C(=O)N[C@@H](CC(C)C)C(=O)N1CCC[C@H]1C(=O)N[C@@H](CCCNC(=N)N)C(=O)N[C@H](C(=O)N[C@@H](CCC(=O)O)C(=O)N[C@H](C(=O)NCC(=O)N[C@@H](CO)C(=O)NCC(=O)N[C@@H](CO)C(=O)N[C@@H](CO)C(N)=O)[C@@H](C)O)[C@@H](C)O)[C@@H](C)O
B5: [N-terminal(C20 diacid-gGlu-3xOEG), des1, 30S, 31G]mimylin (peptide)
peptide: {C20 diacid-γGlu-AEEA-AEEA-AEEA}-ASELSTAALGRLSAELHELATLPRTETGSGSP-NH2
B6: [N-terminal(C20 diacid-gGlu), des1, 25H, 30S, 31G]mimylin (peptide)
peptide: {C20 diacid-γGlu}-ASELSTAALGRLSAELHELATLPHTETGSGSP-NH2
SMILES: CC(C)C[C@H](NC(=O)[C@H](C)NC(=O)[C@H](C)NC(=O)[C@@H](NC(=O)[C@H](CO)NC(=O)[C@H](CC(C)C)NC(=O)[C@H](CCC(=O)O)NC(=O)[C@H](CO)NC(=O)[C@H](C)NC(=O)CC[C@H](NC(=O)CCCCCCCCCCCCCCCCCCC(=O)O)C(=O)O)[C@@H](C)O)C(=O)NCC(=O)N[C@@H](CCCNC(=N)N)C(=O)N[C@@H](CC(C)C)C(=O)N[C@@H](CO)C(=O)N[C@@H](C)C(=O)N[C@@H](CCC(=O)O)C(=O)N[C@@H](CC(C)C)C(=O)N[C@@H](Cc1c[nH]cn1)C(=O)N[C@@H](CCC(=O)O)C(=O)N[C@@H](CC(C)C)C(=O)N[C@@H](C)C(=O)N[C@H](C(=O)N[C@@H](CC(C)C)C(=O)N1CCC[C@H]1C(=O)N[C@@H](Cc1c[nH]cn1)C(=O)N[C@H](C(=O)N[C@@H](CCC(=O)O)C(=O)N[C@H](C(=O)NCC(=O)N[C@@H](CO)C(=O)NCC(=O)N[C@@H](CO)C(=O)N1CCC[C@H]1C(N)=O)[C@@H](C)O)[C@@H](C)O)[C@@H](C)O
B7: [N-terminal(C20 diacid-gGlu), des1, 30S, 31G, 33F]mimylin (peptide)
peptide: {C20 diacid-γGlu}-ASELSTAALGRLSAELHELATLPRTETGSGSF-NH2
SMILES: CC(C)C[C@H](NC(=O)[C@H](C)NC(=O)[C@H](C)NC(=O)[C@@H](NC(=O)[C@H](CO)NC(=O)[C@H](CC(C)C)NC(=O)[C@H](CCC(=O)O)NC(=O)[C@H](CO)NC(=O)[C@H](C)NC(=O)CC[C@H](NC(=O)CCCCCCCCCCCCCCCCCCC(=O)O)C(=O)O)[C@@H](C)O)C(=O)NCC(=O)N[C@@H](CCCNC(=N)N)C(=O)N[C@@H](CC(C)C)C(=O)N[C@@H](CO)C(=O)N[C@@H](C)C(=O)N[C@@H](CCC(=O)O)C(=O)N[C@@H](CC(C)C)C(=O)N[C@@H](Cc1c[nH]cn1)C(=O)N[C@@H](CCC(=O)O)C(=O)N[C@@H](CC(C)C)C(=O)N[C@@H](C)C(=O)N[C@H](C(=O)N[C@@H](CC(C)C)C(=O)N1CCC[C@H]1C(=O)N[C@@H](CCCNC(=N)N)C(=O)N[C@H](C(=O)N[C@@H](CCC(=O)O)C(=O)N[C@H](C(=O)NCC(=O)N[C@@H](CO)C(=O)NCC(=O)N[C@@H](CO)C(=O)N[C@@H](Cc1ccccc1)C(N)=O)[C@@H](C)O)[C@@H](C)O)[C@@H](C)O
B8: [N-terminal(C20 diacid-gGlu), des1, 30S, 31G, 33G]mimylin (peptide)
peptide: {C20 diacid-γGlu}-ASELSTAALGRLSAELHELATLPRTETGSGSG-NH2
SMILES: CC(C)C[C@H](NC(=O)[C@H](C)NC(=O)[C@H](C)NC(=O)[C@@H](NC(=O)[C@H](CO)NC(=O)[C@H](CC(C)C)NC(=O)[C@H](CCC(=O)O)NC(=O)[C@H](CO)NC(=O)[C@H](C)NC(=O)CC[C@H](NC(=O)CCCCCCCCCCCCCCCCCCC(=O)O)C(=O)O)[C@@H](C)O)C(=O)NCC(=O)N[C@@H](CCCNC(=N)N)C(=O)N[C@@H](CC(C)C)C(=O)N[C@@H](CO)C(=O)N[C@@H](C)C(=O)N[C@@H](CCC(=O)O)C(=O)N[C@@H](CC(C)C)C(=O)N[C@@H](Cc1c[nH]cn1)C(=O)N[C@@H](CCC(=O)O)C(=O)N[C@@H](CC(C)C)C(=O)N[C@@H](C)C(=O)N[C@H](C(=O)N[C@@H](CC(C)C)C(=O)N1CCC[C@H]1C(=O)N[C@@H](CCCNC(=N)N)C(=O)N[C@H](C(=O)N[C@@H](CCC(=O)O)C(=O)N[C@H](C(=O)NCC(=O)N[C@@H](CO)C(=O)NCC(=O)N[C@@H](CO)C(=O)NCC(N)=O)[C@@H](C)O)[C@@H](C)O)[C@@H](C)O

Numbered stars: 1 amine (or outer) side, 2 acyl side, 3 side chain; on linkers, the order of the positions; unused ones are H or OH. * marks the point of attachment. C20 diacid = O=C(O)CCCCCCCCCCCCCCCCCCC(=O)*; γGlu = O=C(O)[C@H](CCC(=O)[*:2])N[*:1]; AEEA = NCCOCCOCC(=O)O

For orientation: IC50 means the midpoint of a concentration-inhibition curve.

The experiment addresses T1, human amylin receptor (human calcitonin receptor + human RAMP3) (human). In words: whole-cell competition vs 125I-rat amylin (Assay Va).
On to B1, for which the IC50 worked out at 3.05 nM. The result for B2 reads 1.59 nM; that for B3, 1.89 nM. On to B4, for which the IC50 was determined as 4.07 nM.

For the molecule B5, the IC50 amounted to 0.432 nM. The result for B6 reads 0.608 nM. The result for B7 reads 1.36 nM; that for B8, 4.36 nM.

The record behind these values is patent US20160272683A1 (Novo Nordisk, published 2016).
